biological target: TCR 868 (single-chain Vbeta-linker-Valpha); experiment: not given; settings: higher = more enriched with TCR 868 than with the control TCR A6; not monotonic in affinity (misses both ways); scale: ratio: mean frequency with TCR 868 / mean frequency with control TCR A6, each normalised to the 3* stop peptide; numbering: sequential-on-construct, sequence starts at 1

Question: For “SL9 peptide (HIV-1 Gag, […]) presented by HLA-A*02:01 3T (SLTNTVATL; codon ACG)”, which screen value is on record?
Answer: The screen value was 1.07.

Question: Which screen value does the source give for “SL9 peptide (HIV-1 Gag, […]) presented by HLA-A*02:01 3T (SLTNTVATL; codon ACT)” here?
Answer: The screen value was 1.11.

biological target: TCR 868 (single-chain Vbeta-linker-Valpha); experiment: YAMTAD: yeast mating between pMHC-displaying and TCR-displaying yeast, diploid selection, deep sequencing; 3 biological x 4 technical repeats; settings: S. cerevisiae mating; TCR 868 group vs control TCR A6 group; higher = more enriched with TCR 868 than with the control TCR A6; not monotonic in affinity (misses both ways); not an affinity; keep out of graded; partner unresolved; scale: ratio: mean frequency with TCR 868 / mean frequency with control TCR A6, each normalised to the 3* stop peptide; numbering: sequential-on-construct, sequence starts at 1

Question: How did the screen value turn out when “SL9 peptide (HIV-1 Gag, […]) presented by HLA-A*02:01 3S (SLSNTVATL; codon AGT)” was run?
Answer: The screen value was 1.08.

Question: For “SL9 peptide (HIV-1 Gag, […]) presented by HLA-A*02:01 3L (SLLNTVATL; codon CTT)”, which screen value is on record?
Answer: The screen value was 2.02.

Question: For “SL9 peptide (HIV-1 Gag, […]) presented by HLA-A*02:01 3L (SLLNTVATL; codon TTG)”, which screen value is on record?
Answer: The screen value was 1.84.

Question: With “SL9 peptide (HIV-1 Gag, […]) presented by HLA-A*02:01 3I (SLINTVATL; codon ATT)” as the substance, how does the screen value read?
Answer: Its screen value is 1.28.

Question: Which screen value does the source give for “SL9 peptide (HIV-1 Gag, […]) presented by HLA-A*02:01 3Q (SLQNTVATL; codon CAG)” here?
Answer: The screen value was 1.16.

Question: “SL9 peptide (HIV-1 Gag, […]) presented by HLA-A*02:01 3L (SLLNTVATL; codon CTG)” was tested. Which screen value did it give?
Answer: Its screen value is 1.89.

Question: With “SL9 peptide (HIV-1 Gag, […]) presented by HLA-A*02:01 3A (SLANTVATL; codon GCG)” as the substance, how does the screen value read?
Answer: The screen value was 1.01.

Question: How did the screen value turn out when “SL9 peptide (HIV-1 Gag, […]) presented by HLA-A*02:01 3M (SLMNTVATL; codon ATG)” was run?
Answer: Its screen value is 1.16.

Question: Which screen value does the source give for “SL9 peptide (HIV-1 Gag, […]) presented by HLA-A*02:01 3D (SLDNTVATL; codon GAT)” here?
Answer: Its screen value is 1.15.

Question: For “SL9 peptide (HIV-1 Gag, […]) presented by HLA-A*02:01 3G (SLGNTVATL; codon GGG)”, which screen value is on record?
Answer: Its screen value is 0.959.

Question: For “SL9 peptide (HIV-1 Gag, […]) presented by HLA-A*02:01 3V (SLVNTVATL; codon GTG)”, which screen value is on record?
Answer: Its screen value is 1.11.

Question: Which screen value does the source give for “SL9 peptide (HIV-1 Gag, […]) presented by HLA-A*02:01 3K (SLKNTVATL; codon AAG)” here?
Answer: The screen value was 1.21.

Question: With “SL9 peptide (HIV-1 Gag, […]) presented by HLA-A*02:01 3A (SLANTVATL; codon GCT)” as the substance, how does the screen value read?
Answer: The screen value was 1.12.

Question: For “SL9 peptide (HIV-1 Gag, […]) presented by HLA-A*02:01 3R (SLRNTVATL; codon AGG)”, which screen value is on record?
Answer: The screen value was 1.06.

Question: For “SL9 peptide (HIV-1 Gag, […]) presented by HLA-A*02:01 3W (SLWNTVATL; codon TGG)”, which screen value is on record?
Answer: Its screen value is 1.2.

Question: For “SL9 peptide (HIV-1 Gag, […]) presented by HLA-A*02:01 3E (SLENTVATL; codon GAG)”, which screen value is on record?
Answer: Its screen value is 0.967.

Question: With “SL9 peptide (HIV-1 Gag, […]) presented by HLA-A*02:01 3P (SLPNTVATL; codon CCT)” as the substance, how does the screen value read?
Answer: Its screen value is 0.983.

Question: For “SL9 peptide (HIV-1 Gag, […]) presented by HLA-A*02:01 3S (SLSNTVATL; codon TCG)”, which screen value is on record?
Answer: The screen value was 1.06.

Question: With “SL9 peptide (HIV-1 Gag, […]) presented by HLA-A*02:01 3H (SLHNTVATL; codon CAT)” as the substance, how does the screen value read?
Answer: The screen value was 1.25.

Question: How did the screen value turn out when “SL9 peptide (HIV-1 Gag, […]) presented by HLA-A*02:01 3F (SLFNTVATL; codon TTT)” was run?
Answer: The screen value was 2.02.

Question: “SL9 peptide (HIV-1 Gag, […]) presented by HLA-A*02:01 3G (SLGNTVATL; codon GGT)” was tested. Which screen value did it give?
Answer: Its screen value is 0.969.

Question: For “SL9 peptide (HIV-1 Gag, […]) presented by HLA-A*02:01 3R (SLRNTVATL; codon CGG)”, which screen value is on record?
Answer: The screen value was 1.09.

Question: “SL9 peptide (HIV-1 Gag, […]) presented by HLA-A*02:01 3V (SLVNTVATL; codon GTT)” was tested. Which screen value did it give?
Answer: Its screen value is 1.16.

Question: With “SL9 peptide (HIV-1 Gag, […]) presented by HLA-A*02:01 3N (SLNNTVATL; codon AAT)” as the substance, how does the screen value read?
Answer: Its screen value is 0.989.

Question: Which screen value does the source give for “SL9 peptide (HIV-1 Gag, […]) presented by HLA-A*02:01 3C (SLCNTVATL; codon TGT)” here?
Answer: The screen value was 1.1.

Question: With “SL9 peptide (HIV-1 Gag, […]) presented by HLA-A*02:01 3R (SLRNTVATL; codon CGT)” as the substance, how does the screen value read?
Answer: Its screen value is 1.04.

Question: “SL9 peptide (HIV-1 Gag, […]) presented by HLA-A*02:01 3P (SLPNTVATL; codon CCG)” was tested. Which screen value did it give?
Answer: Its screen value is 1.03.

Question: With “SL9 peptide (HIV-1 Gag, […]) presented by HLA-A*02:01 3S (SLSNTVATL; codon TCT)” as the substance, how does the screen value read?
Answer: Its screen value is 1.08.
